Patent US20080280832A1 (LABORATOIRES SERONO, published 2008)

Target: T1, human FSH receptor (human, UniProt P23945 18-695)
T1 sequence (looked up): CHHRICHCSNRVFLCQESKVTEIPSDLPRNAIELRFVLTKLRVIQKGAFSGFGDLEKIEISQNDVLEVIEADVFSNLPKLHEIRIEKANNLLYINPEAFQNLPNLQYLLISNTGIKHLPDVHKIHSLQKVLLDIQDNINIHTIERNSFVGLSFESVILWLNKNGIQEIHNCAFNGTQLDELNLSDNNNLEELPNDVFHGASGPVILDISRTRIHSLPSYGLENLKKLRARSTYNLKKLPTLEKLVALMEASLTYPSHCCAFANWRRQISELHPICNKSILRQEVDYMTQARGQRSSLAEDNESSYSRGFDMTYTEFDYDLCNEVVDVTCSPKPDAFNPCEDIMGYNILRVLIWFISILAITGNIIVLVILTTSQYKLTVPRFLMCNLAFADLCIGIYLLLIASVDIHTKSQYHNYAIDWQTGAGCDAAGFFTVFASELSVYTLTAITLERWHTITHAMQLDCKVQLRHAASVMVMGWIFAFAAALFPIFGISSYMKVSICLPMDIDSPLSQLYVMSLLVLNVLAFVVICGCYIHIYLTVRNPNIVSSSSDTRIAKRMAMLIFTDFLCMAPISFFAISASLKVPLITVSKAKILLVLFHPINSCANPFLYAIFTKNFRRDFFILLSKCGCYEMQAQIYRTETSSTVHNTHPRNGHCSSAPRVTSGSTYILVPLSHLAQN
Experiment: cell-based or functional assay

EC50 M (cAMP production in CHO-FSHR cells): 0.414 nM
B1: Clone 15C- α D3N/β GM1 (ligand)
chain 1: not shown
chain 2: NSCELTNITIAIEKEECRFCISINTTWCAGYCYTRDLVYKDPARPKIQKTCTFKNLTYETVRVPGCAHHADSLYTYPVATQCHCGKCDSDSTDCTVRGLGPSYCSFGEMKE
